Experimental data reported in patent publication US20100227824A1 (SYMTHERA CANADA, published 2010).

T1: Mig (CXCL9) (UniProt Q07325 23-125)
T1 construct: Bought chemokine
T1 sequence (looked up): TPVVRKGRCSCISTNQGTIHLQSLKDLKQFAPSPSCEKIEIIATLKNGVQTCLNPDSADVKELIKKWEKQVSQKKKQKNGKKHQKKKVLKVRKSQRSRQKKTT

T2: IP-10 (CXCL10) (UniProt P02778 22-98)
T2 construct: Bought chemokine
T2 sequence (looked up): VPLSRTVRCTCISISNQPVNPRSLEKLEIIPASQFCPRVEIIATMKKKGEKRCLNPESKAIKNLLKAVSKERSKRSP

T3: I-TAC (CXCL11) (UniProt O14625 22-94)
T3 construct: Bought chemokine; also called I-TACK
T3 sequence (looked up): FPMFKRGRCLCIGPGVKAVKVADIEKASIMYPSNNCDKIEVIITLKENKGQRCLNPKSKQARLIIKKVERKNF

T4: I-309 (CCL1) (UniProt P22362 23-96, limits assumed)
T4 construct: Bought chemokine
T4 sequence (looked up): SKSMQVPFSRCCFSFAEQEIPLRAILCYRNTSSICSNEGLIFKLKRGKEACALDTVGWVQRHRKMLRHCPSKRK

T5: MCP-2 (CCL8) (UniProt P80075 24-99)
T5 construct: Bought chemokine
T5 sequence (looked up): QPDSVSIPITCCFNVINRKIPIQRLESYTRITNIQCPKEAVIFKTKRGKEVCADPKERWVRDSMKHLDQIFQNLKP

T6: Eotaxin 3 (CCL26) (UniProt Q9Y258 24-94)
T6 construct: Bought chemokine
T6 sequence (looked up): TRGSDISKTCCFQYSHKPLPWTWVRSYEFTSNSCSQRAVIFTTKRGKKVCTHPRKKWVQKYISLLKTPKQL

T7: BCA-1 (CXCL13) (UniProt O43927 23-109)
T7 construct: Bought chemokine
T7 sequence (looked up): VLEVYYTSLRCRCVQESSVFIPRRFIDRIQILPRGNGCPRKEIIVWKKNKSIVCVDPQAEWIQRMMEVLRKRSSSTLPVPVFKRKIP

T8: TECK (CCL25) (UniProt O15444 24-150)
T8 construct: Bought chemokine
T8 sequence (looked up): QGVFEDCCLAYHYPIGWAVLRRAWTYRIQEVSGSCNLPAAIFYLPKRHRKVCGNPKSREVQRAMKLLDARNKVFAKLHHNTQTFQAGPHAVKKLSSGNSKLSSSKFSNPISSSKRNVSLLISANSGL

T9: Lymphotactin (XCL-1) (UniProt P47992 23-114, limits assumed)
T9 construct: Bought chemokine
T9 sequence (looked up): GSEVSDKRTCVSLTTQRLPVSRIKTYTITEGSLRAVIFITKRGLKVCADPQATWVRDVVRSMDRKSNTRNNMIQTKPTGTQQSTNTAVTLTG

T10: GRO-β (CXCL2) (UniProt P19875 35-107)
T10 construct: Bought chemokine
T10 sequence (looked up): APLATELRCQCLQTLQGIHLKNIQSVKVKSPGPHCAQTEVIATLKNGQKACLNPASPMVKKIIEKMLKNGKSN

T11: IL-8 (CXCL8) (UniProt P10145 28-99, limits assumed)
T11 construct: also called IL-8(72aa); IL-8(77aa)
T11 sequence (looked up): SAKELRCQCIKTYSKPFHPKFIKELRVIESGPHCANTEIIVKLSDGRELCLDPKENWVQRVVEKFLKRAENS

T12: RANTES (CCL5) (UniProt P13501 24-91)
T12 construct: Bought chemokine
T12 sequence (looked up): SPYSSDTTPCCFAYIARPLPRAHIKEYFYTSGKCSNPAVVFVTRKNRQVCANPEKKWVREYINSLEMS

T13: Eotaxin 2 (CCL24) (UniProt O00175 27-104, limits assumed)
T13 construct: Bought chemokine
T13 sequence (looked up): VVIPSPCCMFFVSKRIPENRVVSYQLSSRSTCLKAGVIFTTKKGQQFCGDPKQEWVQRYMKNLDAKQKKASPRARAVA

T14: Exodus-2 (CCL21) (UniProt O00585 24-134)
T14 construct: Bought chemokine
T14 sequence (looked up): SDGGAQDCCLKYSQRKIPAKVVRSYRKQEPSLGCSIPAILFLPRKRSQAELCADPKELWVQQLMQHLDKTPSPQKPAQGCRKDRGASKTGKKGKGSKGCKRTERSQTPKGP

T15: CTAC (CCL27) (UniProt Q9Y4X3 25-112)
T15 construct: Bought chemokine
T15 sequence (looked up): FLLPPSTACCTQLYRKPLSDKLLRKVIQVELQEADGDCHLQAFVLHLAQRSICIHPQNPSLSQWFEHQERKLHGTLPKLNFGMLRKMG


Columns and labels:
Experiment in all cases: micro-array, phage-presented peptide on printed CK
Mig (CXCL9) = target: T1, Mig (CXCL9)
Experimental: (§1) (1) Printing: Chemokine (CK) solution (in water) was serially diluted with Print Reagent (GenTel BioSurfaces USA) to final concentrations of 50 μg and 25 μg/ml. BSA/BSA-Biotin control solutions (in water) were diluted with Print Reagent to 100 μg/ml. Amplified stock of M13 phage control (M13KEgIII Cloning Vector, New England Biolabs, Cat.No.E8101S) was stored in Tris Buffered Saline (TBS; pH7.5, 4° C.) and diluted with Print Reagent to the working titre (10^8 pfu/μl). An automated spotting robot (16 pin print tool, 0.4mm head; BioRobotics, UK) was used to print the CK/BSA control/M13 control, 5 repeats per sample (CK 25 μg/ml and 50 μg/ml; BSA 100 μg/ml; M13 20 μl), on PATH Protein Microarray Slides (GenTel, Prod.No.2-1005/-1025) at […], and 50-70% relative humidity. Printed micro-array slides were stored at Room Temperature (RT) or 4° C. for at least 24 h before use.
(§2) (2) Blocking: Block Buffer (500 μl/partition; PATHblock, GenTel, Prod.No.2-1014) was applied to the slide for 1 hour at room temp (RT). After removal of Block Buffer, the slide was air dried for 25 minutes;
(§3) (11) Analysis: Quantitative analysis of micro-array was performed by the SpotReader program of Niles Scientific (USA) and presented as Relative Fluorescence (RF) as a function of CK concentration. Micro-array readout (Cy3 fluorescence) was quantified to determine the relative binding affinities of a CBP for the CKs and by inference, the specificity of the CBP for binding to a CK.

IP-10 (CXCL10) = target: T2, IP-10 (CXCL10)
Experimental: as §1, §2, §3

I-TAC (CXCL11) = target: T3, I-TAC (CXCL11)
Experimental: as §1, §2, §3

I-309 (CCL1) = target: T4, I-309 (CCL1)
Experimental: as §1, §2, §3

MCP-2 (CCL8) = target: T5, MCP-2 (CCL8)
Experimental: as §1, §2, §3

MCP-4 (CCL13) = target: T16, MCP-4 (CCL13) (UniProt Q99616 24-98)
T16 construct: Bought chemokine
T16 sequence (Q99616 24-98 limits assumed): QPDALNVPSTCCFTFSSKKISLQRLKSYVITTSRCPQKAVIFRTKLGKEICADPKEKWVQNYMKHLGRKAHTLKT
Experimental: as §1, §2, §3

Eotaxin (CCL11) = target: T17, Eotaxin (CCL11) (UniProt P51671 24-97)
T17 construct: Bought chemokine
T17 sequence (P51671 24-97 limits assumed): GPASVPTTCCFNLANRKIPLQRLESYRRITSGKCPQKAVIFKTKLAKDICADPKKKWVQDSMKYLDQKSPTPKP
Experimental: as §1, §2, §3

Eotaxin 3 (CCL26) = target: T6, Eotaxin 3 (CCL26)
Experimental: as §1, §2, §3

SDF-1β (CXCL12) = target: T18, SDF-1β (CXCL12) (UniProt P48061 22-93)
T18 construct: Beta isoform of CXCL12; also called SDFβ
T18 sequence (P48061 22-93 limits assumed): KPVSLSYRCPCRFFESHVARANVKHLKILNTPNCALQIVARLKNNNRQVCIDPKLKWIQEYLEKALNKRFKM
Experimental: as §1, §2, §3

BCA-1 (CXCL13) = target: T7, BCA-1 (CXCL13)
Experimental: as §1, §2, §3

TECK (CCL25) = target: T8, TECK (CCL25)
Experimental: as §1, §2, §3

Lymphotactin (XCL-1) = target: T9, Lymphotactin (XCL-1)
Experimental: as §1, §2, §3

GRO-β (CXCL2) = target: T10, GRO-β (CXCL2)
Experimental: as §1, §2, §3

IL-8 (CXCL8) = target: T11, IL-8 (CXCL8)
Experimental: as §1, §2, §3

RANTES (CCL5) = target: T12, RANTES (CCL5)
Experimental: as §1, §2, §3

Eotaxin 2 (CCL24) = target: T13, Eotaxin 2 (CCL24)
Experimental: as §1, §2, §3

SDF-1α (CXCL12) = target: T19, SDF-1α (CXCL12) (UniProt P48061-2 22-89)
T19 construct: Alpha isoform of CXCL12; also called SDFα
T19 sequence (P48061 22-89 limits assumed): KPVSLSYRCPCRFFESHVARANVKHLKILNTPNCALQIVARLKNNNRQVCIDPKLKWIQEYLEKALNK
Experimental: as §1, §2, §3

Exodus-2 (CCL21) = target: T14, Exodus-2 (CCL21)
Experimental: as §1, §2, §3

MCP-1 (CCL2) = target: T20, MCP-1 (CCL2) (UniProt P13500 24-99)
T20 construct: Bought chemokine
T20 sequence (P13500 24-99 limits assumed): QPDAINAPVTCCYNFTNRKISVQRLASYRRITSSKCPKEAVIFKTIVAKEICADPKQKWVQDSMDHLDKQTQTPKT
Experimental: as §1, §2, §3

CTAC (CCL27) = target: T15, CTAC (CCL27)
Experimental: as §1, §2, §3

| Binder | binding result (Mig (CXCL9)) | binding result (IP-10 (CXCL10)) | binding result (I-TAC (CXCL11)) | binding result (I-309 (CCL1)) | Relative Fluorescence Units (RFU) (MCP-2 (CCL8)) | Relative Fluorescence Units (RFU) (MCP-4 (CCL13)) | binding result (Eotaxin (CCL11)) | binding result (Eotaxin 3 (CCL26)) | binding result (SDF-1β (CXCL12)) | binding result (BCA-1 (CXCL13)) | binding result (TECK (CCL25)) | binding result (Lymphotactin (XCL-1)) | Relative Fluorescence Units (RFU) (IL-8 (CXCL8)) | Relative Fluorescence Units (RFU) (Mig (CXCL9)) | Relative Fluorescence Units (RFU) (I-TAC (CXCL11)) | Relative Fluorescence Units (RFU) (I-309 (CCL1)) | Relative Fluorescence Units (RFU) (Eotaxin 3 (CCL26)) | binding result (SDF-1α (CXCL12)) | binding result (Exodus-2 (CCL21)) | Relative Fluorescence Units (RFU) (MCP-1 (CCL2)) | also measured |
| --- | --- | --- | --- | --- | --- | --- | --- | --- | --- | --- | --- | --- | --- | --- | --- | --- | --- | --- | --- | --- | --- |
| WVFGNAACK [Phage-Presented Peptide 8.7 (Ph-p8.7)] | binds | binds | binds | binds | > 15000 RFU | > 15000 RFU | binds | binds | binds | binds | binds | binds | – | – | – | – | – | – | – | – | – |
| DYDY [Phage-Presented Peptide 32 (Ph-p32)] | – | – | – | – | > 10000 RFU | > 10000 RFU | – | – | binds | binds | binds | binds | > 10000 RFU | > 10000 RFU | > 10000 RFU | > 10000 RFU | > 10000 RFU | binds | binds | – | Relative Fluorescence Units (RFU) (GRO-β (CXCL2)): > 10000 RFU; Relative Fluorescence Units (RFU) (RANTES (CCL5)): > 10000 RFU; Relative Fluorescence Units (RFU) (Eotaxin (CCL11)): > 10000 RFU; Relative Fluorescence Units (RFU) (Eotaxin 2 (CCL24)): > 10000 RFU |
| DYDYG [Phage-Presented Peptide 31 (Ph-p31)] | – | – | – | – | > 15000 RFU | > 15000 RFU | – | – | binds | binds | binds | binds | > 15000 RFU | > 15000 RFU | > 15000 RFU | > 15000 RFU | > 15000 RFU | binds | binds | > 15000 RFU | Relative Fluorescence Units (RFU) (RANTES (CCL5)): > 15000 RFU; Relative Fluorescence Units (RFU) (Eotaxin (CCL11)): > 15000 RFU; Relative Fluorescence Units (RFU) (Eotaxin 2 (CCL24)): > 15000 RFU |
| NAMCK [Phage-Presented Peptide 8.11 (Ph-p8.11)] | – | – | – | – | – | – | – | – | binds | binds | binds | – | – | – | > 10000 RFU | – | > 10000 RFU | binds | binds | – | Relative Fluorescence Units (RFU) (IP-10 (CXCL10)): > 10000 RFU; binding result (CTAC (CCL27)): binds |
| WVFGHGMCK [Phage-Presented Peptide 25 (Ph-p25)] | – | – | – | – | > 15000 RFU | > 15000 RFU | binds | binds | – | binds | binds | binds | > 15000 RFU | > 15000 RFU | – | – | – | – | binds | > 15000 RFU | Relative Fluorescence Units (RFU) (GRO-β (CXCL2)): > 15000 RFU; Relative Fluorescence Units (RFU) (IP-10 (CXCL10)): > 15000 RFU; binding result (RANTES (CCL5)): binds |
| WVFGAAACK [Phage-Presented Peptide 8.6 (Ph-p8.6)] | binds | binds | binds | binds | > 15000 RFU | > 15000 RFU | binds | binds | binds | binds | binds | binds | – | – | – | – | – | binds | binds | > 15000 RFU | binding result (Eotaxin 2 (CCL24)): binds |
| WVFG [Phage-Presented Peptide 8.4 (Ph-p8.4)] | binds | binds | binds | binds | > 15000 RFU | > 15000 RFU | binds | binds | – | binds | binds | binds | – | – | – | – | – | – | – | – | – |
| WVFGVHFCK [Phage-Presented Peptide 8.77 (Ph-p8.77)] | – | – | – | – | > 15000 RFU | > 15000 RFU | – | – | binds | binds | binds | – | > 15000 RFU | > 15000 RFU | > 15000 RFU | > 15000 RFU | > 15000 RFU | – | – | – | – |
